The values that follow come from patent US20200352995A1.

Assay [1] addresses OX40 (CD134) on BCMA-specific CTL (human) (UniProt P43489). As to the kind of experiment: cell-based or functional assay.
Assay [2] has as its target LAG3 (CD223) on BCMA-specific CTL (human) (UniProt P18627). The experiment in a line: cell-based or functional assay.

Chain of OX40 (CD134) on BCMA-specific CTL (human) (P43489 29-277): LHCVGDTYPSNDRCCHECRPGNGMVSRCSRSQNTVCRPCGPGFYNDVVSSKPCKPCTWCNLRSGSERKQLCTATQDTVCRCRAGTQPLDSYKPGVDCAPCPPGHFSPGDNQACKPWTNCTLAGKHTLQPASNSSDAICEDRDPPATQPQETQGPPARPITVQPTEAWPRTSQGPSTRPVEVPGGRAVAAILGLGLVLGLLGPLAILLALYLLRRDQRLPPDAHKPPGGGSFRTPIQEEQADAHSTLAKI
Chain of LAG3 (CD223) on BCMA-specific CTL (human) (P18627 23-525): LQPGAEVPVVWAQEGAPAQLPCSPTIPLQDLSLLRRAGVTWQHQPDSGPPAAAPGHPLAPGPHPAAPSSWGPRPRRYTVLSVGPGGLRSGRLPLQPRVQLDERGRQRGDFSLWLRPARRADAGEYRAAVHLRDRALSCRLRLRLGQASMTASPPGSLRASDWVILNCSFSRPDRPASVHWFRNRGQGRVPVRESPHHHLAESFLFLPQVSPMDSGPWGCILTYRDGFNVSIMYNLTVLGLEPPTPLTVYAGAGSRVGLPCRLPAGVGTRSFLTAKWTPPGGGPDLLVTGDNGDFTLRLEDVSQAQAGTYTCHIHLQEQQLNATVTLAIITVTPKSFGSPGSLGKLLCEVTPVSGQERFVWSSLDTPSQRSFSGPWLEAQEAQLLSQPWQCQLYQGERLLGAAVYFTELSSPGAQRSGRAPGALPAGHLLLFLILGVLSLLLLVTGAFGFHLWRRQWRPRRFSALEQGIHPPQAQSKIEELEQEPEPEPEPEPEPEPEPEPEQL

In the case of “Clinical grade mAb to OX40 (Bristol-Myers Squibb) (antibody)”, in assay [1], the cytotoxic activity (CD107a degranulation) by memory CTL against HLA-A2+ McCAR MM cells was 20% and the cytotoxic activity (CD107a degranulation) by memory CTL against HLA-A2+ U266 MM cells worked out at 39.5%.
In assay [2], “Clinical grade mAb to LAG3 (Bristol-Myers Squibb) (antibody)” gave a cytotoxic activity (CD107a degranulation) by memory CTL against HLA-A2+ McCAR MM cells of 14.5% and a cytotoxic activity (CD107a degranulation) by memory CTL against HLA-A2+ U266 MM cells of 35.8%.
